Experimental data from article PMC13200811 (Cell, 2025).
Positions count from the first letter of the chain named. Names and notes keep the numbering of the source. Read-outs that look alike come from different tables or passages of the source.

Legend:
[1] = molecular target: BCL-wΔN (aa 40-193; α2-α9) (human) (UniProt Q92843); experiment: SEC
[2] = molecular target: BCL-wΔNΔC (aa 40-156; α2-α8) (human) (UniProt Q92843); experiment: SEC
SEC [3] = molecular target: the molecule itself; experiment: SEC
SEC [4] = molecular target: the molecule itself; experiment: SEC; remark: listed apart in the source
[5] = molecular target: T1, full-length monomeric BCL-w (aa 1-193) (human), Q92843; experiment: SEC-MALS; details: remark: other sources report otherwise
T1 chain: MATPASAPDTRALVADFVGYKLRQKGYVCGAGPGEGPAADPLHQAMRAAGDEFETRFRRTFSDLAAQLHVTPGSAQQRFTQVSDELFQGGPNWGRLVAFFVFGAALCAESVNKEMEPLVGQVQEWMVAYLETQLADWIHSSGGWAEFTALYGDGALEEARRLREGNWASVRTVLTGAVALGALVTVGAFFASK

[6] = molecular target: T1, full-length monomeric BCL-w (aa 1-193) …; experiment: SEC-SAXS; details: remark: other sources report otherwise

## BCL-wΔN (aa 40-193; α2-α9) (from UniProt Q92843 40-193) (domain or fragment)
[1]
  stoichiometry N: 2

## BCL-wΔNΔC (aa 40-156; α2-α8) (from UniProt Q92843 40-156) (domain or fragment)
[2]
  stoichiometry N: 2

B1: GFP-BCL-w α1-α8 (aa 1-156) (domain or fragment, human, UniProt Q92843 1-156, looked up)
chain: MATPASAPDTRALVADFVGYKLRQKGYVCGAGPGEGPAADPLHQAMRAAGDEFETRFRRTFSDLAAQLHVTPGSAQQRFTQVSDELFQGGPNWGRLVAFFVFGAALCAESVNKEMEPLVGQVQEWMVAYLETQLADWIHSSGGWAEFTALYGDGAL
SEC [3]
  stoichiometry N: 2

B2: BCL-wΔC (aa 1-156; α1-α8) (domain or fragment, human, UniProt Q92843 1-156, looked up)
chain: B1 chain
SEC [4]
  stoichiometry N: 2

B3: full-length monomeric BCL-w (aa 1-193), Q92843 1-193 (natural protein)
chain: T1 chain
[5]
  stoichiometry N: 2
[6]
  stoichiometry N: 2

B4: BCL-w G94E (full length) (natural protein, human, UniProt Q92843 1-193, looked up)
chain: T1 chain with G94E
SEC [4]
  stoichiometry N: 2
